Laboratory results: article PMC5582868, “BLADE-ON-PETIOLE proteins act in an E3 ubiquitin ligase complex to regulate PHYTOCHROME INTERACTING FACTOR 4 abundance” (eLife, 2017)
Blank lines part the entries; values can stand above or below the binder they belong to.

Columns and labels:
His-MBP-BOP2 = molecular target: T1, His-MBP-BOP2 (Arabidopsis thaliana, UniProt Q9ZVC2 1-491); assay: pull-down; 1 µg GST-PIF4 on Glutathione Sepharose 4B beads; 1 µg MBP or MBP-BOP2 added in 300 µl binding buffer (50 mM Tris-Cl pH 7.6, 100 mM NaCl, 1 mM EDTA, 1% Triton X-100, 0.5 mM DTT, 5% glycerol), 4°C, 2 hr; blot with anti-MBP; details: both partners purified
T1 construct: BLADE-ON-PETIOLE 2 (BOP2), Arabidopsis thaliana; source: Escherichia coli BL21, purified (Ni-NTA Agarose)
T1 sequence (looked up): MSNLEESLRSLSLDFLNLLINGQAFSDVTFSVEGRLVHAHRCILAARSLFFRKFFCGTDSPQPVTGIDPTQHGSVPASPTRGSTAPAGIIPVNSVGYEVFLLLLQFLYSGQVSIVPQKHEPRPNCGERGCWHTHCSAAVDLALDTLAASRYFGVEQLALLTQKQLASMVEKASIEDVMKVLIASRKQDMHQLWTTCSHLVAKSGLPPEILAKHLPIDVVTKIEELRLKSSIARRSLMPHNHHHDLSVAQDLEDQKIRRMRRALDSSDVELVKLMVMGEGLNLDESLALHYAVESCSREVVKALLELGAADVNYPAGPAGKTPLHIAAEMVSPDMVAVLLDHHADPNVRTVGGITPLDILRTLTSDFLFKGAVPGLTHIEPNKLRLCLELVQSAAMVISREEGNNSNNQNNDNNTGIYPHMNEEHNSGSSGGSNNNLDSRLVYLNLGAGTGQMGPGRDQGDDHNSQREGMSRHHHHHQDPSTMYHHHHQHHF

His-GST-PIF4 = molecular target: T2, His-GST-PIF4 (Arabidopsis thaliana (Mouse-ear cress), UniProt Q8W2F3); assay: GST pulldown
T2 chain: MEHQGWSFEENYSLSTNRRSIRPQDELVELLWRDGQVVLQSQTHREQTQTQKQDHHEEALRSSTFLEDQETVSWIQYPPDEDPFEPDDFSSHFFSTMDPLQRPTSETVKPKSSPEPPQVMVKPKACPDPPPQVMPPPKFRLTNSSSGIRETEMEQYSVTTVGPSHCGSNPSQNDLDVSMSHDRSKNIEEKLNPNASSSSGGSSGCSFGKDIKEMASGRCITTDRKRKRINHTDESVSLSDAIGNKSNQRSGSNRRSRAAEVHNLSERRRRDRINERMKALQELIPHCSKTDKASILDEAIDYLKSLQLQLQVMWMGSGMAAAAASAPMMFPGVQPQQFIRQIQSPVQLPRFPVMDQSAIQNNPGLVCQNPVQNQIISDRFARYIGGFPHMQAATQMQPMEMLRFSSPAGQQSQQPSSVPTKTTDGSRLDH

binding result (His-MBP-BOP2): binds
B1: His-GST-PIF4 (natural protein, Arabidopsis thaliana, UniProt Q8W2F3 1-430, looked up)
chain: T2 chain
notes: also called glutathione S-transferase (GST) tagged PIF4; source: Escherichia coli BL21, purified (Ni-NTA Agarose)

binding result (His-GST-PIF4): binds
B2: His-MBP-BOP2 (protein)
chain: T1 sequence (looked up)
